Literature values, collected in article PMC10572602, “Molecular Mechanism of STIL Coiled-Coil Domain Oligomerization” (International Journal of Molecular Sciences, 2023).

Tested on: Stil−/− mouse embryonic fibroblasts
Details: full-length STIL expressed in Stil−/− mouse embryonic fibroblasts; ref [14]; cited from earlier work
From the text: Presumably, this is due to the disruption of the hydrophobic CC interactions upon mutation from the hydrophobic Leu to the charged Glu. […] Other ...

B1: full-length L736E mutant: full-length STIL protein with L736E mutation (protein, UniProt Q15468 1-1287, looked up, variant L736E)
chain: MEPIYPFARPQMNTRFPSSRMVPFHFPPSKCALWNPTPTGDFIYLHLSYYRNPKLVVTEKTIRLAYRHAKQNKKNSSCFLLGSLTADEDEEGVTLTVDRFDPGREVPECLEITPTASLPGDFLIPCKVHTQELCSREMIVHSVDDFSSALKALQCHICSKDSLDCGKLLSLRVHITSRESLDSVEFDLHWAAVTLANNFKCTPVKPIPIIPTALARNLSSNLNISQVQGTYKYGYLTMDETRKLLLLLESDPKVYSLPLVGIWLSGITHIYSPQVWACCLRYIFNSSVQERVFSESGNFIIVLYSMTHKEPEFYECFPCDGKIPDFRFQLLTSKETLHLFKNVEPPDKNPIRCELSAESQNAETEFFSKASKNFSIKRSSQKLSSGKMPIHDHDSGVEDEDFSPRPIPSPHPVSQKISKIQPSVPELSLVLDGNFIESNPLPTPLEMVNNENPPLINHLEHLKPLQPQLYDEKHSPEVEAGEPSLRGIPNQLNQDKPALLRHCKVRQPPAYKKGNPHTRNSIKPSSHNGPSHDIFEKLQTVSAGNVQNEEYPIRPSTLNSRQSSLAPQSQPHDFVFSPHNSGRPMELQIPTPPLPSYCSTNVCRCCQHHSHIQYSPLNSWQGANTVGSIQDVQSEALQKHSLFHPSGCPALYCNAFCSSSSPIALRPQGDMGSCSPHSNIEPSPVARPPSHMDLCNPQPCTVCMHTPKTESDNGMMGLSPDAYRFLTEQDRQLRLEQAQIQRLLEAQSLMPCSPKTTAVEDTVQAGRQMELVSVEAQSSPGLHMRKGVSIAVSTGASLFWNAAGEDQEPDSQMKQDDTKISSEDMNFSVDINNEVTSLPGSASSLKAVDIPSFEESNIAVEEEFNQPLSVSNSSLVVRKEPDVPVFFPSGQLAESVSMCLQTGPTGGASNNSETSEEPKIEHVMQPLLHQPSDNQKIYQDLLGQVNHLLNSSSKETEQPSTKAVIISHECTRTQNVYHTKKKTHHSRLVDKDCVLNATLKQLRSLGVKIDSPTKVKKNAHNVDHASVLACISPEAVISGLNCMSFANVGMSGLSPNGVDLSMEANAIALKYLNENQLSQLSVTRSNQNNCDPFSLLHINTDRSTVGLSLISPNNMSFATKKYMKRYGLLQSSDNSEDEEEPPDNADSKSEYLLNQNLRSIPEQLGGQKEPSKNDHEIINCSNCESVGTNADTPVLRNITNEVLQTKAKQQLTEKPAFLVKNLKPSPAVNLRTGKAEFTQHPEKENEGDITIFPESLQPSETLKQMNSMNSVGTFLDVKRLRQLPKLF
modifications: full-length
notes: full-length STIL protein with L736E mutation
Question: With B1 as the molecule, how does the “formation of centrosomes and cilia (in words)” value read?
Answer: completely disrupts the formation of centrosomes and cilia
